The values below come from publication PMC11341715.

Experiment [1] has as its target biotinylated FZD6 cysteine-rich domain (CRD) (human). As to the kind of experiment: BLI; Octet Red 96e; biotinylated FZD3 or FZD6 CRD immobilised, Nb8 or Wnt5a in solution; 10 mM HEPES pH 7.5, 150 mM NaCl, 0.02% Tween 20, 0.005% GDN; 1:1 binding model.
The target of experiment [2] is biotinylated multidomain FZD3 (C-terminally truncated, in detergent) (human) (UniProt Q9NPG1). Briefly: BLI; Octet Red 96e; biotinylated multidomain FZD3 or FZD6 in detergent immobilised, nanobody or DEP in solution; 10 mM HEPES pH 7.5, 150 mM NaCl, 0.02% Tween 20, 0.005% GDN; 1:1 binding model.
The target of experiment [3] is biotinylated FZD3 cysteine-rich domain (CRD) (human) (UniProt Q9NPG1). As to the kind of experiment: BLI; Octet Red 96e; biotinylated FZD3 or FZD6 CRD immobilised, Nb8 or Wnt5a in solution; 10 mM HEPES pH 7.5, 150 mM NaCl, 0.02% Tween 20, 0.005% GDN; 1:1 binding model.

biotinylated FZD6 cysteine-rich domain (CRD) (human), sequence (O60353 22-139): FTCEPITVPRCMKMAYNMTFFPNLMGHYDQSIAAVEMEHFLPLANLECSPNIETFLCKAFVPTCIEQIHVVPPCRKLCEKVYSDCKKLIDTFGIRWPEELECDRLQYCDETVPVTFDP

B1: Nb8 (VHH)
VHH: QVQLVESGGGLVQAGGSLRLSCAASGSISSINAMGWYRQAPGKQRELVAAITSGGSTNYADSVKGRFTISRDNAKNTVYLQMNSLKPGDTAVYYCNLLYYIDYVEYDYWGQGTQVTVSS
B1: in experiment [1], the equilibrium dissociation constant (Kd) was 1200 nM.

B2: DVL2 DEP domain (domain or fragment)
chain: PESGLEVRDRMWLKITIPNAFLGSDVVDWLYHHVEGFPERREARKYASGLLKAGLIRHTVNKITFSEQCYYVFGD
In turn, B2 came in with a Kd in experiment [2] of 460 nM.

B3: human Wnt5a (ligand)
chain: IIGAQPLCSQLAGLSQGQKKLCHLYQDHMQYIGEGAKTGIKECQYQFRHRRWNCSTVDNTSVFGRVMQIGSRETAFTYAVSAAGVVNAMSRACREGELSTCGCSRAARPKDLPRDWLWGGCGDNIDYGYRFAKEFVDARERERIHAKGSYESARILMNLHNNEAGRRTVYNLADVACKCHGVSGSCSLKTCWLQLADFRKVGDALKEKYDSAAAMRLNSRGKLVQVNSRFNSPTTQDLVYIDPSPDYCVRNESTGSLGTQGRLCNKTSEGMDGCELMCCGRGYDQFKTVQTERCHCKFHWCCYVKCKKCTEIVDQFVCK
Take B3: in experiment [3], the Kd stood at 83 nM.
